Test results as given in the supplement of paper PMC9112550, “Optimization of the antimicrobial peptide Bac7 by deep mutational scanning” (BMC Biology, 2022).

Tested on: Escherichia coli TOP10
Assay: shrunken log2 fold change of peptide-encoding DNA abundance (4.5 h post-induction vs induction); higher = less antimicrobial activity (less host growth inhibition)
Conditions: time post-induction: 4.5 h; library: site-saturation at positions 5, 18, 19, 20
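Note: peptides expressed intracellularly from a pBAD plasmid library in pooled LB shake-flask culture, induced with 0.3% L-arabinose, DNA abundance read by NGS, three biological replicates, DESeq2 with apeglm shrinkage.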

| Sequence | shrunken log2 fold change |
| --- | --- |
| RRIRSRPPRLPRPRPRPWWVPRP | -0.2 |
| RRIRCRPPRLPRPRPRPKSLPRP | -0.191 |
| RRIRRRPPRLPRPRPRPIWCPRP | -0.0104 |
| RRIRFRPPRLPRPRPRPCQRPRP | -0.124 |
| RRIRWRPPRLPRPRPRPCQAPRP | 0.201 |
| RRIRNRPPRLPRPRPRPCGYPRP | 0.019 |
| RRIRYRPPRLPRPRPRPFEWPRP | 0.0273 |
| RRIRDRPPRLPRPRPRPKHAPRP | 0.222 |
| RRIRQRPPRLPRPRPRPSRWPRP | -0.0126 |
| RRIRLRPPRLPRPRPRPLPPPRP | 0.678 |
| RRIRARPPRLPRPRPRPGCFPRP | 0.96 |
| RRIRVRPPRLPRPRPRPETYPRP | -0.316 |
| RRIRVRPPRLPRPRPRPVDFPRP | -0.289 |
| RRIRPRPPRLPRPRPRPSNCPRP | -0.909 |
| RRIRHRPPRLPRPRPRPWWQPRP | 0.00354 |
| RRIRPRPPRLPRPRPRPTICPRP | 0.172 |
| RRIRWRPPRLPRPRPRPEYIPRP | -0.0519 |
| RRIRCRPPRLPRPRPRPMEWPRP | 0.0244 |
| RRIRCRPPRLPRPRPRPLNQPRP | -0.317 |
| RRIRHRPPRLPRPRPRPSLPPRP | -0.328 |
| RRIRERPPRLPRPRPRPYQRPRP | -0.876 |
| RRIRQRPPRLPRPRPRPHCRPRP | 0.0105 |
| RRIRQRPPRLPRPRPRPQCDPRP | -0.146 |
| RRIRQRPPRLPRPRPRPDACPRP | 0.0301 |
| RRIRDRPPRLPRPRPRPMRPPRP | 0.804 |

| Sequence | shrunken log2 fold change |
| --- | --- |
| RRIRMRPPRLPRPRPRPQCQPRP | -0.0148 |
| RRIRRRPPRLPRPRPRPYFDPRP | -0.823 |
| RRIRKRPPRLPRPRPRPNLSPRP | -0.0224 |
| RRIRWRPPRLPRPRPRPYPFPRP | -0.0811 |
| RRIRGRPPRLPRPRPRPHICPRP | -0.0626 |
| RRIRSRPPRLPRPRPRPAWTPRP | 0.0161 |
| RRIRWRPPRLPRPRPRPVKIPRP | -0.142 |
| RRIRRRPPRLPRPRPRPCWIPRP | 0.063 |
| RRIRARPPRLPRPRPRPSVCPRP | 0.348 |
| RRIRARPPRLPRPRPRPYTCPRP | -0.0591 |
| RRIRMRPPRLPRPRPRPKDHPRP | 0.458 |
| RRIRTRPPRLPRPRPRPPWNPRP | -0.288 |
| RRIRFRPPRLPRPRPRPCPQPRP | -0.697 |
| RRIRERPPRLPRPRPRPYGWPRP | -0.135 |
| RRIRGRPPRLPRPRPRPWWFPRP | -0.03 |
| RRIRGRPPRLPRPRPRPAHVPRP | 0.586 |
| RRIRGRPPRLPRPRPRPVTEPRP | 0.706 |
| RRIRCRPPRLPRPRPRPCMQPRP | -0.345 |
| RRIRVRPPRLPRPRPRPEVFPRP | 0.0748 |
| RRIRYRPPRLPRPRPRPLPTPRP | -0.0873 |
| RRIRWRPPRLPRPRPRPSCTPRP | -0.11 |
| RRIRWRPPRLPRPRPRPSKIPRP | -0.152 |
| RRIRDRPPRLPRPRPRPNVVPRP | -0.0354 |
| RRIRFRPPRLPRPRPRPQMHPRP | -0.332 |
| RRIRFRPPRLPRPRPRPHGNPRP | -0.414 |

| Sequence | shrunken log2 fold change |
| --- | --- |
| RRIRSRPPRLPRPRPRPYNLPRP | -0.573 |
| RRIRKRPPRLPRPRPRPDHTPRP | 0.0503 |
| RRIRLRPPRLPRPRPRPKCWPRP | 0.323 |
| RRIRHRPPRLPRPRPRPRCLPRP | -0.169 |
| RRIRFRPPRLPRPRPRPHNDPRP | -0.81 |
| RRIRQRPPRLPRPRPRPTATPRP | 0.0728 |
| RRIRHRPPRLPRPRPRPCGEPRP | -0.0851 |
| RRIRDRPPRLPRPRPRPYDFPRP | -0.178 |
| RRIRCRPPRLPRPRPRPIHEPRP | -0.115 |
| RRIRFRPPRLPRPRPRPFIDPRP | -0.389 |
| RRIRFRPPRLPRPRPRPDDDPRP | 0.114 |
| RRIRKRPPRLPRPRPRPIICPRP | -0.0679 |
| RRIRGRPPRLPRPRPRPTSAPRP | 0.855 |
| RRIRWRPPRLPRPRPRPYTDPRP | 0.102 |
| RRIRWRPPRLPRPRPRPFTWPRP | -0.119 |
| RRIRERPPRLPRPRPRPMSYPRP | -0.00931 |
| RRIRSRPPRLPRPRPRPDVDPRP | 0.0112 |
| RRIRDRPPRLPRPRPRPFVDPRP | 0.063 |
| RRIRERPPRLPRPRPRPNGRPRP | -0.033 |
| RRIRNRPPRLPRPRPRPSIYPRP | -0.449 |
| RRIRKRPPRLPRPRPRPYLPPRP | -0.354 |
| RRIRGRPPRLPRPRPRPTPYPRP | 0.324 |
| RRIRVRPPRLPRPRPRPWFGPRP | 0.0293 |
| RRIRHRPPRLPRPRPRPENKPRP | -0.639 |
| RRIRKRPPRLPRPRPRPQWWPRP | 0.243 |

| Sequence | shrunken log2 fold change |
| --- | --- |
| RRIRRRPPRLPRPRPRPWWCPRP | 4.82 |
| RRIRVRPPRLPRPRPRPYPVPRP | -0.419 |
| RRIRRRPPRLPRPRPRPEMWPRP | 1.14 |
| RRIRLRPPRLPRPRPRPQARPRP | 0.169 |
| RRIRRRPPRLPRPRPRPQTPPRP | 0.881 |
| RRIRVRPPRLPRPRPRPKSAPRP | 0.172 |
| RRIRERPPRLPRPRPRPNSVPRP | 0.0407 |
| RRIRLRPPRLPRPRPRPHPVPRP | 0.0604 |
| RRIRMRPPRLPRPRPRPSSRPRP | 0.208 |
| RRIRTRPPRLPRPRPRPFCRPRP | -0.0976 |
| RRIRMRPPRLPRPRPRPVKMPRP | -0.124 |
| RRIRARPPRLPRPRPRPSIKPRP | -0.133 |
| RRIRHRPPRLPRPRPRPDSVPRP | -0.117 |
| RRIRWRPPRLPRPRPRPMTQPRP | 0.0159 |
| RRIRGRPPRLPRPRPRPFCCPRP | 0.522 |
| RRIRGRPPRLPRPRPRPHNAPRP | 0.0947 |
| RRIRHRPPRLPRPRPRPDEEPRP | -0.0946 |
| RRIRYRPPRLPRPRPRPRHCPRP | -0.251 |
| RRIRPRPPRLPRPRPRPFTNPRP | -0.286 |
| RRIRMRPPRLPRPRPRPYTDPRP | -0.161 |
| RRIRHRPPRLPRPRPRPDGNPRP | -0.105 |
| RRIRFRPPRLPRPRPRPYMPPRP | -1.09 |
| RRIRPRPPRLPRPRPRPANKPRP | -0.267 |
| RRIRVRPPRLPRPRPRPRKHPRP | 0.112 |
| RRIRPRPPRLPRPRPRPHAMPRP | -0.0838 |

| Sequence | shrunken log2 fold change |
| --- | --- |
| RRIRNRPPRLPRPRPRPKSCPRP | -0.0533 |
| RRIRHRPPRLPRPRPRPRPMPRP | -0.00237 |
| RRIRTRPPRLPRPRPRPVSSPRP | 0.651 |
| RRIRERPPRLPRPRPRPWEAPRP | 0.74 |
| RRIRMRPPRLPRPRPRPNLTPRP | 0.0283 |
| RRIRSRPPRLPRPRPRPPDGPRP | 0.447 |
| RRIRRRPPRLPRPRPRPFDFPRP | -0.146 |
| RRIRGRPPRLPRPRPRPPFNPRP | 1.66 |
| RRIRARPPRLPRPRPRPATEPRP | 0.795 |
| RRIRQRPPRLPRPRPRPEVFPRP | 0.0304 |
| RRIRWRPPRLPRPRPRPTRKPRP | -0.0294 |
| RRIRFRPPRLPRPRPRPCMHPRP | -0.111 |
| RRIRVRPPRLPRPRPRPWACPRP | -0.191 |
| RRIRRRPPRLPRPRPRPWPCPRP | 0.133 |
| RRIRWRPPRLPRPRPRPHSLPRP | -0.262 |
| RRIRQRPPRLPRPRPRPPIVPRP | -0.015 |
| RRIRVRPPRLPRPRPRPVQWPRP | -0.0327 |
| RRIRPRPPRLPRPRPRPQVFPRP | 0.0117 |
| RRIRGRPPRLPRPRPRPKGCPRP | 2.83 |
| RRIRQRPPRLPRPRPRPYNCPRP | -0.92 |
| RRIRERPPRLPRPRPRPNAPPRP | 0.0774 |
| RRIRDRPPRLPRPRPRPQVIPRP | -0.0205 |
| RRIRKRPPRLPRPRPRPASLPRP | -0.23 |
| RRIRERPPRLPRPRPRPLQIPRP | -0.0796 |
| RRIRWRPPRLPRPRPRPNRYPRP | 0.0333 |
